# Results reported in the supplement of paper PMC9170038.
# Key:
# [1] = system: MS2 coat protein; assay: apparent KD of MS2 coat protein; designed switch direction (-1 OFF switch, 1 ON switch): 1; higher = weaker reporter binding; conditions: Eterna round: R98
# Procedure: (§1)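 RNA-MaP: designed FMN/MS2 RNA switches (84 nt design region) are transcribed on-chip within common flanks and titrated with SNAP-549-labelled MS2 coat protein (about 1-3000 nM) in 100 mM Tris pH 7.5, 80 mM KCl, 4 mM MgCl2, without or with 200 uM FMN. Median apparent KD per design; activation ratio = KD,OFF / KD,ON.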
# [2] = system: MS2 coat protein; assay: apparent KD of MS2 coat protein; higher = weaker reporter binding; conditions: Eterna round: R101
# Procedure: as §1
# [3] = system: MS2 coat protein; assay: apparent KD of MS2 coat protein; designed switch direction (-1 OFF switch, 1 ON switch): -1; higher = weaker reporter binding; conditions: Eterna round: R98
# Procedure: as §1
Sequence,apparent KD of MS2 coat protein ([1]; input ligand: FMN 200 uM),apparent KD of MS2 coat protein ([1]; input ligand: none),apparent KD of MS2 coat protein ([2]; input ligand: FMN 200 uM),apparent KD of MS2 coat protein ([2]; input ligand: none),further results
AAAACAUGAGGAUCACCCAUGUAAAGAUCGGUUAAUAGAAGUGAGGAUAUACUAAAUUUUAGGUAGUAGAAGGCACUGGGUACA [JR_SSNG3_Sub034],28.1 nM,23.1 nM,–,–,–
AAAUAAAAUAUAGGAUAUGGAAACAUGAGGAUCACCCAUGUAAAAUAAGAUAAAUAAUAAUAUAGCCAGAAGGAUAAAAUAUAA [LRO004_SS NG 2],34.5 nM,27.6 nM,–,–,–
AAUAAACAAUAAAAGAGUCCACGAAACUUUUGAGGAUCACCCAGAAGGGCUGAGGUAAUACCUCAGCAGGAUAUGGACGUGGAC [#SharedSequence IExNG# - 3] (puzzle (switch architecture): Inverted Exclusion NG 3),–,–,86.8 nM,12.4 nM,–
ACUUUAUUUGAGAAGGUGAAGUGGAAACAUGAGGAUCACCCAUGUAAUACGAAGCGUAUUUUUAUCAAGGAUAUCAAAUAAAGA [WHB=ISS-NG2-MS2FAR3 #bad] (puzzle (switch architecture): Inverted Same State NG 2),–,–,7.58 nM,10.7 nM,–
AGACCUGCUCAGAAGGCGUGUGCGAGGCUGGAAACAGCCUCGAAUUAAAAUCUUCGAGGAUCACCCGAGGAUAUGAGCAGGUCA [#SharedSequence - IExNG2: 20] (puzzle (switch architecture): Inverted Exclusion NG 2),–,–,59.7 nM,11.3 nM,–
AGACUCAGAUGGUGCCAGCUUGCACAUGAGGAUCACCCAUGUCAGGAUAUCUUCGCUCCGGGAGAAGAGAAGGGACAAGAAAUU [Anenan],–,–,–,–,apparent KD of MS2 coat protein ([3]; input ligand: FMN 200 uM): 165 nM; apparent KD of MS2 coat protein ([3]; input ligand: none): 104 nM
CAAUUGGCACAGAAGGGUGACAUGAGGAUCACCCAUGUAGCGUGGCAUUCAGGAAGAGCCACGCCACAGGAUAUGUGCGGGCAC [Rigeri] (puzzle (switch architecture): Inverted Same State NG 2),–,–,31.9 nM,24.7 nM,–
CACCGUUACAGAGGAUAUGACACAUGAGGAUCACCCAUGUAAUAAAUGAGAAUUUCGAAUGUAACUCAGAAGGCUGGAAUCGGC [JieuxMod 1 - Jieux - Exclusion NG 2],–,–,–,–,apparent KD of MS2 coat protein ([3]; input ligand: FMN 200 uM): 61.6 nM; apparent KD of MS2 coat protein ([3]; input ligand: none): 25.9 nM
CCUGCACCUCAAGGAUAUCCAGUCGUUUCGACUGGAGAAGGUGAGGAUCACCCACCUAGCCUGACGUUUGUCAGGCAUGCAGGU [#AddUracilToBrourdLoops 1 - Jieux - Exclusion NG1] (puzzle (switch architecture): Exclusion NG 1),–,–,49.5 nM,27 nM,–
CCUUGAUAAUAUCUUCACAUGAGGAUCACCCAUGUCGCUCGACAGGAUAUAUUUUAUUUGUUUAAGUAGAAGGGUCGCAGAUUC [LRO020_SS NG 3],142 nM,136 nM,–,–,–
"CGAGACACUUGAGGAUAUGCUCAGGAUAACUGAGCAGAAGGCAGGGAAACCUGAGGAUCACCCAGGUAACUGGAAAGUCUCGAA [Same State NG1 - A3C, U17G Submission 5B]",46.3 nM,144 nM,–,–,–
CUUAGUUUGUAGAAGGGUGACAUGAGGAUCACCCAUGUGCGUCGCCUGAAAGACCAGGGUACGCCACAGGAUAUACAAAGUAAG [Ororzati] (puzzle (switch architecture): Inverted Same State NG 2),–,–,88.2 nM,58 nM,–
GCAGAAGGUGCGGAGGAUCACCCUGUAAGGAUAUGCAUUAGCAAGGAUAUACAGAGGAUCACCCUGUAGAAGGUGCACUAUUCU [pwkr2 ssNG3 DX.4],1230 nM,1450 nM,–,–,–
GCUGCUAUCGCAGGAUAUUACAUGGGAAAUAAUACAUGAGGAUCACCCAUGUAAAAUAUCGUAAAUAAGAAGGGCGAUAGCAGC [Lame State 4 - Jieux - Same State NG 2],239 nM,1210 nM,–,–,–
GCUUGCGACGAAGGAUAUGGGUGCCUAAACACGAGGAUCACCCGUGUACAGGAAGCUAAAUGCUCUCAGAAGGUCGUCGCAGGC [United States 10 - Jieux - Same State NG 2],18.4 nM,36 nM,–,–,–
GGAGACCUCACAGGAUAUGCUGGACUUUGUCCAGCAGAAGGGUGAACAUGAGGAUCACCCAUGUAAAUGGUCUCCAAAUUUAAU [Denovo 55],33.4 nM,389 nM,–,–,–

Sequence,apparent KD of MS2 coat protein ([1]; input ligand: FMN 200 uM),apparent KD of MS2 coat protein ([1]; input ligand: none),apparent KD of MS2 coat protein ([2]; input ligand: FMN 200 uM),apparent KD of MS2 coat protein ([2]; input ligand: none),further results
GGAGGUCACAUUUACAUGAGGAUCACCCAUGUCGAAAGACAUGAGGAUAUGCUACCUAAUUGGUAGCAGAAGGCAUGGACCUCC [Mat - Same State NG 3 - JL Mod - D28],226 nM,287 nM,–,–,–
GGUACUCAAAGAGUACCAAUACGAACAUGAGGAUCACCCAUGUAGGAUAUGCUACUCAAAGAGUAGCAGAAGGACAUGUGCCUU [salish99_ExNG3_020 #endbits investigation] (puzzle (switch architecture): Exclusion NG 3),–,–,92.3 nM,15.1 nM,–
GUACGGAUCAUAGGAUAUCUGCCGGCCGGAGUUAGAGAAGGGUGAUCUAGGAUGCCACAUGAGGAUCACCCAUGUCAACAUCGC [Vemati],20.9 nM,24.2 nM,–,–,–
GUAGCUAUCGGAGGAUAUUCAUACCGGAAACGGACAUGAGGAUCACCCAUGUGGCGAAAGCCUUGGGAGAAGGCCGAUAGCUAC [#DoubleMagnetSystem - jl-sng2-2.23 Eli mod] (puzzle (switch architecture): Same State NG 2),–,–,7.49 nM,215 nM,–
GUGCCUUGGGAGAAGGAUAAUUAAUAAUAAAUAAAAGGAUAUUCAUACCGGAAACGGACAUGAGGAUCACCCAUGUGGCACAAA (puzzle (switch architecture): Inverted Same State NG 1),–,–,45.4 nM,186 nM,–
GUGCGAGCCACAGGAUAUCUACAGAUUUUUUGUAGAGAAGGGUGACCUCGUGCACCACAUGAGGAUCACCCAUGUAACUAGGCG [Bianeren],24.5 nM,82.1 nM,–,–,–
UAUUAAAGGUGAGGAUAUGCACAGGAUCACCGUGUAGAAGGCAUCAGGUAGAAGGUGCAGAGGAUCACCCUGUAAGGAUAUAUC [pwkr2 ssNG1 DX.10],191 nM,1080 nM,–,–,–
UAUUAUAUAUAGAAGGACAUGAGGAUCACCCAUGUCGCCGGGCCCGGGAAACCGGGCCCGGCCAUGUAGGAUAUAUAUAUAGUA [#This is a good prank 9] (puzzle (switch architecture): Inverted Exclusion NG 2),–,–,7.72 nM,5.35 nM,–
UCAGUAGAGUCAGGAUAUACAAAAGGCGGUCCAUACAUGAGGAUCACCCAUGUAGAAGGGACUCUACUGUAAGUCGGAAACGAC [#StaticStemDeletion - Eli x2 4.005] (puzzle (switch architecture): Small Loop Exclusion NG 1),–,–,15.6 nM,329 nM,–
UCGGUUUUCGCAGGAUAUGGAGGAUAUUCCCACAUGAGCAUCAGCCAUGUCUGCAUGGAAGAAGGCCAGAAGGGCGAGAACCGA [United States 1 - Jieux - Same State NG 2],11.1 nM,13.6 nM,–,–,–
UGAUCGCUUGGAGGAUAUCCAACUAUCCUAGUUGGAGAAGGCCAAGCUACAGAGCUAAGCUUGGAAGUCACUUCCGAUCAACAC [pwkr ssNG1 F9.4.2],54.9 nM,33.6 nM,–,–,–
UUAUAAAAUAUAGGAUAUGGAAACAUGAGGAUCACCCAUGUAUGAUAAGAUAAAUUAUGAUAUAGCCAGAAGGAUACAAUAUAU [LRO011_SS NG 2],28.9 nM,28 nM,–,–,–
UUAUAAUUAAGAGGAUAUAUACAACAUGAGGAUCACCCAUGUACCCAUGUAGUAGAAGGCUUAUUUUUAUAUAAUAAUAUAAUU [AstrosLoopssng1#9] (puzzle (switch architecture): Small Loop Same State NG 1),–,–,40 nM,148 nM,–
UUAUUAUGUGUAGGAUAUGCGUAUUAUUAUUAUGCAGAAGGACAUGAGGAUCACCCAUGUAUAUUAUUAUUAUAUAUUAUAUAU (puzzle (switch architecture): Exclusion NG 1),–,–,19.1 nM,14.7 nM,–
UUUUUAUUUAUAGGAUAUGGAGACAUGAGGAUCACCCAUGUAUGAUAAGAUAAAUUAUGAUGUGGCCAGAAGGAUAUUAUUUUU [LRO018_SS NG 2],85.5 nM,76.4 nM,–,–,–
